Data reported in the supplement of paper PMC11780869.

System: Bacillus subtilis
Assay: cleaved RNA product abundance (RNA/gDNA barcode ratio) relative to median wild-type variant (ratio to wild type); higher = more accumulation of the downstream cleavage product
Procedure, shortened: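 Oligos with a 9% error rate were used to build barcoded, mutagenized RNase Y cleavage-site windows within truncated aprE or tetM reporter mRNAs, which were integrated into the B. subtilis chromosome. Cultures were grown in LB at 37°C between OD600 0.0003 and 0.3. Cleaved RNA was gel-selected, reverse transcribed and barcode-sequenced, as were genomic DNA barcodes, and UMIs were collapsed. Cleaved product abundance is the scaled RNA:gDNA barcode ratio, with the median construct carrying the unmutated site as reference.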

[1] = experiment (reporter, strain, medium): exp 4a: truncated aprE reporter, strain BJT201 with 2% xylose (RNase J1 expressed), cleavage site: cggR-gapA (positions -7 to +36 mutated)
[2] = experiment (reporter, strain, medium): exp 8a: truncated aprE reporter, strain BJT201 with 2% xylose (RNase J1 expressed), cleavage site: glnRA (positions -5 to +31 mutated)
[3] = experiment (reporter, strain, medium): exp 2b: truncated aprE reporter, strain BJT200, cleavage site: cggR-gapA (positions -7 to +36 mutated)
[4] = experiment (reporter, strain, medium): exp 6: tetM reporter, strain 168, cleavage site: cggR-gapA (positions -7 to +36 mutated)

## ACAGACGAAGGAGCCGCAAAGAAGTTATTAAGGGATGAATAAGCCCTCAAAATAAATATCTCTCACTTATTTAAA
[1]
  cleaved RNA product abundance: 0.261

## ACAGACGAAGGAGCCGCAAATAAGTTATTAAAGGATGAATAATCCCTCAATATAGATATCTCTCACTTATTTAAA
[1]
  cleaved RNA product abundance: 0.188

## CGACATGTCCCGCTTCTTTCATTAATCCGTTCGCAACTGTTTTACTATATACATTTACCTTTTAAGAGGAGGAAT
[2]
  cleaved RNA product abundance: 0.418

## ACAGACGAAGGAGCCGCAAAGAAGTCATTAAGGGATGAATAATCCCTCAATATAAATATCTCTCACTTATTTAAA
[3]
  cleaved RNA product abundance: 0.186
[1]
  cleaved RNA product abundance: 0.255
[4]
  cleaved RNA product abundance: 0.244

## ACAGACGAAGGAGCCGCAAAGAAGTTATTAAGGAATGAATAATCCCTCAAGATAAATATCTCTCACTTATTTAAA
[1]
  cleaved RNA product abundance: 0.0834

## ACAGACGAAGGAGCCGCAAAGAAGTTATTAAGGGATGAATAATCGCTCAATGTAAATATCTCTCACTTATTTAAA
[1]
  cleaved RNA product abundance: 0.048

## CGACATGTCCCGCTTCTTTCATTAATCCGTTAGAAACTGTTTTGATATATACATTTACCTTTTAAGAGGAGGAAT
[2]
  cleaved RNA product abundance: 0.221

## ACAGACGAAGGAGCCGCAAAGAAGTTATTAAGGGACGAATAATTCCTCAATATAAATATCTCTCACTTATTTAAA
[3]
  cleaved RNA product abundance: 0.126
[1]
  cleaved RNA product abundance: 0.192

## ACAGACGAAGGAGCCGCACAGAAGTTACTAAGGGATGAATAATCCCTCAATATAAATATCTCTCACTTATTTAAA
[1]
  cleaved RNA product abundance: 0.22

## CGACATGTCCCGCTTCTTTCATTAATCCGTTAGAAACTGTTTTGCTATTTACATTTACCTTTTAAGAGGAGGAAT
[2]
  cleaved RNA product abundance: 0.127

## ACAGACGAAGGAGCCGCCAAGATGTTATTAAGGGATGAATAATCCCTCAATATAAATATCTCTCACTTATTTAAA
[1]
  cleaved RNA product abundance: 0.894

## ACAGACGAAGGAGCCGCAAAGATGTTATCAAGGGATGAATAATCCCTCAATATAAATATCTCTCACTTATTTAAA
[3]
  cleaved RNA product abundance: 0.239
[1]
  cleaved RNA product abundance: 0.328

## ACAGACGAAGGAGCCGCAAAGAAGTTATTAAGGGATGAATAAGCCCTCAATATAAATAGCTCTCACTTATTTAAA
[1]
  cleaved RNA product abundance: 0.406

## CGACATGTCCCGCTTCTTTCATTAATTCGTTAGCAACTGTTTTGATATATACATTTACCTTTTAAGAGGAGGAAT
[2]
  cleaved RNA product abundance: 0.498

## CGACATGTCCCGCTTCTTTCATTAATACGTTAGCAATAGTTTTGCTATATACATTTACCTTTTAAGAGGAGGAAT
[2]
  cleaved RNA product abundance: 0.874

## ACAGACGAAGGAGCCGCAAAGAAGTTATTTAGGGATGAATAATCCCTGAATATAAATATCTCTCACTTATTTAAA
[1]
  cleaved RNA product abundance: 0.559

## ACAGACGAAGGAGCCGCAAAGAAGTTATAAAGAGATGAATAATCCCTCAATATAAATATCTCTCACTTATTTAAA
[3]
  cleaved RNA product abundance: 0.11
[1]
  cleaved RNA product abundance: 0.137

## ACAGACGAAGGAGCCGCAAAGAAGTTATTAAAAGATGAATAATCCCTCAATATAAATATCTCTCACTTATTTAAA
[3]
  cleaved RNA product abundance: 0.107
[1]
  cleaved RNA product abundance: 0.0921

## ACAGACGAAGGAGCCGCAAAGAAGTTATTAAGGGATGACTAATCCCTCAATATAATTATCTCTCACTTATTTAAA
[1]
  cleaved RNA product abundance: 0.282

## ACAGACGAAGGAGCCGCAAAGAAGTTATTAAGGGATGAATAATCCCTCAACATAAAAATCTCTCACTTATTTAAA
[3]
  cleaved RNA product abundance: 0.242
[1]
  cleaved RNA product abundance: 0.234

## ACAGACGAAGGAGCCGCAAAGAAGTGATTAAGGGATGAATAATCGCTCAATATAAATATCTCTCACTTATTTAAA
[1]
  cleaved RNA product abundance: 0.0548

## ACAGACGAAGGAGCCGCAAAGAAGTTATTAAGGGTAGAATAATCCCTCAATATAAATATCTCTCACTTATTTAAA
[3]
  cleaved RNA product abundance: 0.172
[1]
  cleaved RNA product abundance: 0.293

## ACAGACGAAGGAGCCGCAAAGAAGTTATTAAGTGATGAATAATCCCTAAATATAAATATCTCTCACTTATTTAAA
[3]
  cleaved RNA product abundance: 0.143
[1]
  cleaved RNA product abundance: 0.146

## CGACATGTCCCGCTTCTTTCATTAATCCATTAGCAACTGTTTTGCTACATACATTTACCTTTTAAGAGGAGGAAT
[2]
  cleaved RNA product abundance: 0.772

## ACAGACGAAGGAGCCGCAAAGAAGTTAGTAAGGGAAGAATAATCCCTCAATATAAATATCTCTCACTTATTTAAA
[1]
  cleaved RNA product abundance: 0.302

## CGACATGTCCCGCTTCTTTCATTAATCCGTTAGCAACTGTTATGTTATATACATTTACCTTTTAAGAGGAGGAAT
[2]
  cleaved RNA product abundance: 0.172

## CGACATGTCCCGCTTCTTTCATTAAGCCGTAAGCAACTGTTTTGCTATATACATTTACCTTTTAAGAGGAGGAAT
[2]
  cleaved RNA product abundance: 0.519

## CGACATGTCCCGCTTCTTTCATTATTCCGTTAGCAACTGTTTTGCTATATACATTTACATTTTAAGAGGAGGAAT
[2]
  cleaved RNA product abundance: 1.98

## CGACATGTCCCGCTTCTTTCATTAATCCGTTAGTAACTGTTTTGCTATATACATTTACCATTTAAGAGGAGGAAT
[2]
  cleaved RNA product abundance: 0.33

## ACAGACGAAGGAGCCGCAAAGAAGTTATTAATGGATGAATAATCCCTCAATATAATTATCTCTCACTTATTTAAA
[3]
  cleaved RNA product abundance: 0.13
[1]
  cleaved RNA product abundance: 0.108

## CGACATGTCCCGCTTCTTTCATTAATCCGTTACCAAATGTTTTGCTATATACATTTACCTTTTAAGAGGAGGAAT
[2]
  cleaved RNA product abundance: 0.256

## ACAGACGAAGGAGCCGCAGAGAAGTTATTAAGTGATGAATAATCCCTCAATATAAATATCTCTCACTTATTTAAA
[1]
  cleaved RNA product abundance: 0.161

## ACAGACGAAGGAGCCGCAAAGAACTTATTAAGTGATGAATAATCCCTCAATATAAATATCTCTCACTTATTTAAA
[1]
  cleaved RNA product abundance: 0.0735

## ACAGACGAAGGAGCCGCAAAGAAGTTATTAAGGGATGAAGAATCCCTCCATATAAATATCTCTCACTTATTTAAA
[1]
  cleaved RNA product abundance: 0.273

## ACAGACGAAGGAGCCGCAAAGATGTTATTAAGGGATCAATAATCCCTCAATATAAATATCTCTCACTTATTTAAA
[3]
  cleaved RNA product abundance: 0.708
[1]
  cleaved RNA product abundance: 1.08

## ACAGACGAAGGAGCCGCAAAGAAGTTATTAAGGGATGAATACTCCCTAAATATAAATATCTCTCACTTATTTAAA
[3]
  cleaved RNA product abundance: 0.366

## ACAGACGAAGGAGCCGCAAAGAAGTTATTAAGGTATGAATAATCCCTCAATATAAATATCTCTCACTTATTTAAA
[3]
  cleaved RNA product abundance: 0.107
[1]
  cleaved RNA product abundance: 0.142
[4]
  cleaved RNA product abundance: 0.127

## ACAGACGAAGGAGCCGCAATGAAGTTATTAAGTGATGAATAATCCCTCAATATAAATATCTCTCACTTATTTAAA
[3]
  cleaved RNA product abundance: 0.0987

## ACAGACGAAGGAGCCGCAAAGAAGTTCTTAAGGGATGAATAATCCCACAATATAAATATCTCTCACTTATTTAAA
[3]
  cleaved RNA product abundance: 0.119

## ACAGACGAAGGAGCCGCAAAGATGTTATTATGGGATGAATAATCCCTCAATATAAATATCTCTCACTTATTTAAA
[1]
  cleaved RNA product abundance: 0.343

## ACAGACGAAGGAGCCGCAAAGTACTTATTAAGGGATGAATAATCCCTCAATATAAATATCTCTCACTTATTTAAA
[3]
  cleaved RNA product abundance: 0.437
[1]
  cleaved RNA product abundance: 0.803

## ACAGACGAAGGAGCCGCAAAGTAGTTATTAAGGGATCAATAATCCCTCAATATAAATATCTCTCACTTATTTAAA
[1]
  cleaved RNA product abundance: 1.25

## ACAGACGAAGGAGCCGCAAATAAGTTATTAAGGGATGAATAATCCCTCAATACAAATATCTCTCACTTATTTAAA
[1]
  cleaved RNA product abundance: 0.106

## CGACATGTCCCGCTTCTTTCATTAATCCGTTAGCAACTGTTTTGATATATACATTTGCCTTTTAAGAGGAGGAAT
[2]
  cleaved RNA product abundance: 0.378

## ACAGACGAAGGAGCCGCAAAGAATTTATTAAGGGATGAATAATCCCTCAATAGAAATATCTCTCACTTATTTAAA
[1]
  cleaved RNA product abundance: 0.0925

## ACAGACGAAGGAGCCGCAAAGAAGTTATTAAGGGATGGATAATCCCTCAATATAAATATCTCTCACTTATTTAAA
[3]
  cleaved RNA product abundance: 0.623
[1]
  cleaved RNA product abundance: 0.884
[4]
  cleaved RNA product abundance: 0.969

## CGACATGTCCCGCTTCTTTCATTAATCCCGTTAGCAACTGTTTTGCTATATACATTTACCTTTTAAGAGGAGGAA
[2]
  cleaved RNA product abundance: 1.01

## ACAGACGAAGGAGCCGCAAAGATGTTATTAAGGGATGAATAATCCCTCAAAATAAATATCTCTCACTTATTTAAA
[1]
  cleaved RNA product abundance: 0.502

## ACAGACGAAGGAGCCGCAAAGAAGTTATTAAGGTATGAATAATCGCTCAATATAAATATCTCTCACTTATTTAAA
[1]
  cleaved RNA product abundance: 0.0909

## CGACATGTCCCGCTTCTTTCATTAATCCGTTAGCAACTTTTTTGCTATATTCATTTACCTTTTAAGAGGAGGAAT
[2]
  cleaved RNA product abundance: 0.521

## CGACATGTCCCGCTTCTTTCATTAATCCGTTAGCAACTGTTTTGTTATATACATTTACGTTTTAAGAGGAGGAAT
[2]
  cleaved RNA product abundance: 0.39

## ACAGACGAAGGAGCCGCAAAGAAGTTATTAAGGTATGAATAATCCCTCAACATAAATATCTCTCACTTATTTAAA
[1]
  cleaved RNA product abundance: 0.11

## ACAGACGAAGGAGCCGCAAATAAGTTATTAAGGGATGAATAATCCCTCAATATAAATAACTCTCACTTATTTAAA
[1]
  cleaved RNA product abundance: 0.44

## ACAGACGAAGGAGCCGCAAAGAATTTATTAAGGGATGAATAATCCCTCAAAATAAATATCTCTCACTTATTTAAA
[3]
  cleaved RNA product abundance: 0.198
[1]
  cleaved RNA product abundance: 0.273
